US12383572B2, “Administration of an anti-activin-a compound to a subject” (AMGEN INC., priority 2013, dated 2025)

Key:
VEGF and Ang-1 = VEGF and Ang-1 immunostaining of inh-KO ovarian and testicular tumor sections; assay type: in vivo, mouse; details: ovarian and testicular tumors, inh-KO mice
Description: Zinc-formalin fixed paraffin tumor tissue sections of 4 μm in thickness were prepared. The sections were subjected to antigen retrieval by microwave 3 min in Unmask solution (Vector H-3300) followed by incubation in 10 μg/ml Proteinase-K for 20 min and in 1% H2O2 in dH2O for 10 min at room temperature. The sections were further incubated in 0.1% Tween-20 in PBS for 3 min to permeabilize the cell membrane and in goat serum for 30 min to block non-specific binding. The sections were then incubated at room temperature with specific primary antibody for 3 hours followed by incubation in biotinylated or fluorescently labeled secondary antibody. Substrate developed in Vector SG kit (SK-4700) or DAB and nuclear-counterstained in Vector Fast Red (H-3403) or in hematoxylin. The immunostained tissue sections were analyzed and photographed using a Nikon Eclipse 90i microscope equipped with DS-Ril camera. The primary antibodies used and their dilutions are as follows: VEGF (BD Pharmingen 550549) 1:20 or VEGF (Abcam ab46154) 1:100, active caspase-3 (Abcam ab32042) 1:50, Ang-1 (Abcam ab8451) 1:500, osteopontin (Abcam ab8448) 1:200, CD-31 (Abcam ab56299) 1:100, E-cadherin (Abcam ab76319) 1:80. For immunofluorescence staining, FITC-conjugated secondary antibody (Invitrogen) was added at 1:50 dilution in PBS and incubated for 30 min. Cell nuclei were counterstained with Vectashield PE (Vector).

[1] = system: TOV-21G ovarian cancer xenografts; assay: TOV-21G xenograft growth in nude mice, activin-A antagonists alone; assay type: in vivo, human; details: sActRIIB 30 mg/kg SC 1x/week, activin-A antibody 30 mg/kg SC 2x/week, from day 12, vs PBS
Description: TOV-21G xenograft. 5×10^6 TOV-21G ovarian cancer cells were implanted subcutaneously into individual female athymic nu/nu mice (Harlan). Treatment was initiated at day 12 after tumor implantation, when the average tumor volume reached approximately 150 mm^3. The mice received PBS, sActRIIB (30 mg/kg, SC, 1×/week) or activin-A antibody (30 mg/kg, SC, 2×/week). In a separate chemotherapy combination experiment, the mice were treated with PBS, sActRIIB (10 mg/kg, SC, 1×/week), 5-FU (50 mg/kg, IP, 3 cycles, 4 daily injections per cycle) or sActRIIB and 5-FU combination at the same doses above. For all xenograft experiments, the tumor sizes were measured longitudinally by using an electronic caliper. Immediately prior to the 1st dose, the tumor-bearing mice were randomized to ensure even distribution in tumor sizes across different groups. Tumor volumes (mm^3) were calculated as tumor length (mm)×tumor width (mm)×tumor height (mm). Tumor weights were determined by necropsy.

[2] = system: VEGF, Ang-1, osteopontin, CD31 in TOV-21G tumors; assay: Immunostaining of angiogenesis factors and CD31 in TOV-21G xenograft tumor sections; assay type: in vivo, human; details: treated vs untreated sections
Description: TOV-21G xenograft. 5×10^6 TOV-21G ovarian cancer cells were implanted subcutaneously into individual female athymic nu/nu mice (Harlan). Treatment was initiated at day 12 after tumor implantation, when the average tumor volume reached approximately 150 mm^3. The mice received PBS, sActRIIB (30 mg/kg, SC, 1×/week) or activin-A antibody (30 mg/kg, SC, 2×/week). In a separate chemotherapy combination experiment, the mice were treated with PBS, sActRIIB (10 mg/kg, SC, 1×/week), 5-FU (50 mg/kg, IP, 3 cycles, 4 daily injections per cycle) or sActRIIB and 5-FU combination at the same doses above. Zinc-formalin fixed paraffin tumor tissue sections of 4 μm in thickness were prepared. The sections were subjected to antigen retrieval by microwave 3 min in Unmask solution (Vector H-3300) followed by incubation in 10 μg/ml Proteinase-K for 20 min and in 1% H2O2 in dH2O for 10 min at room temperature. The sections were further incubated in 0.1% Tween-20 in PBS for 3 min to permeabilize the cell membrane and in goat serum for 30 min to block non-specific binding. The sections were then incubated at room temperature with specific primary antibody for 3 hours followed by incubation in biotinylated or fluorescently labeled secondary antibody. […] The immunostained tissue sections were analyzed and photographed using a Nikon Eclipse 90i microscope equipped with DS-Ril camera. […]

[3] = system: TOV-21G, MRC-5, CCD-Lu and THP-1 cell cultures; assay: VEGF and Ang-1 ELISA of cell culture medium after recombinant activin-A; assay type: cell-based, human; details: sActRIIB added with activin-A
Description: The serum VEGF levels in inh-KO mice were measured by using immunoassay kit (R & D Systems), and the levels of human VEGF and Ang-1 in cell line culture medium were quantified using ELISA kits purchased from Invitrogen (VEGF) and R & D Systems (Ang-1), by following the manufacturers' recommended protocols.

B1: sActRIIB: extracellular domain of human activin type-2B receptor fused to IgG2 Fc; full length SEQ ID NO: 21 (Table 9) (protein, listed as Homo sapiens)
chain: ETRWCIYYNANWELERTNQSGLERCEGEQDKRLHCYASWRNSSGTIELVKKGCWLDDFNCYDRQECVATEENPQVYFCCCEGNFCNERFTHLPEAGGPEVTYEPPPTAPTGGGGSVECPPCPAPPVAGPSVFLFPPKPKDTLMISRTPEVTCVVVDVSHEDPEVQFNWYVDGVEVHNAKTKPREEQFNSTFRVVSVLTVVHQDWLNGKEYKCKVSNKGLPAPIEKTISKTKGQPREPQVYTLPPSREEMTKNQVSLTCLVKGFYPSDIAVEWESNGQPENNYKTTPPMLDSDGSFFLYSKLTVDKSRWQQGNVFSCSVMHEALHNHYTQKSLSLSPGK
- VEGF and Ang-1 immunoreactivities in tumor sections (VEGF and Ang-1): completely abolished the VEGF and Ang-1 inductions in the tumors
- growth of TOV-21G xenografts (tumor volume) [1]: significantly inhibited the growth
- CD31 immunostaining (newly formed microvessels) [2]: lack of such new microvessels
- VEGF and Ang-1 immunostaining in tumor sections [2]: virtually none in the sActRIIB-treated sections
- activin-A-induced release of angiogenic factors (ELISA) [3]: blocked completely this activin-A-induced release of angiogenic factors
